Results published in US20250076311A1 (Chugai, published 2025).

T1: soluble mouse FcγRII, His-tagged (mouse, UniProt P08101 30-210, limits assumed)
T1 construct: Captured on the chip through an anti-His antibody
T1 sequence (looked up): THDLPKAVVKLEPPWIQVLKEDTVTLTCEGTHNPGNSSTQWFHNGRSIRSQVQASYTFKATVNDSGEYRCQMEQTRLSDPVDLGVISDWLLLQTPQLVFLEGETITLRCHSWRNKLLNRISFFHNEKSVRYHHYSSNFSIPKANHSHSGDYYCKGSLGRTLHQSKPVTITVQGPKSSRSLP

T2: human FcγRIIb constitutively expressed on MDCK cells (human, UniProt P31994 43-310)
T2 sequence (looked up): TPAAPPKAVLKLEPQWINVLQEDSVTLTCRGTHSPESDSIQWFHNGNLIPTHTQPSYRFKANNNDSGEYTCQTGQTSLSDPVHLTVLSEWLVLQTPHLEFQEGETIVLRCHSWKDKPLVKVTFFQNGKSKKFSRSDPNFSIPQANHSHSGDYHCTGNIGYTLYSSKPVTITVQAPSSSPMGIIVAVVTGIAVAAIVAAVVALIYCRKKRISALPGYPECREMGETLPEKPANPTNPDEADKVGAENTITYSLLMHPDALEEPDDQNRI


Columns and labels:
[1] = molecular target: T1, soluble mouse FcγRII, His-tagged; test: SPR, mouse FcγRII captured via His-tag, antigen-antibody complex injected, pH 7.4, 25 C
Protocol: Regarding the produced Fc region variant-containing antibodies, binding assays between soluble mouse FcγRII and antigen-antibody complexes were performed using BIACORE® T200 (GE Healthcare). Soluble mouse FcγRII was produced in the form of a His-tagged molecule by a method known to those skilled in the art. An appropriate amount of an anti-His antibody was fixed onto Sensor chip CM5 (GE Healthcare) by the amine coupling method using a His capture kit (GE Healthcare) to capture mouse FcγRII. Next, an antibody-antigen complex and a running buffer (as a reference solution) were injected, and interaction was allowed to take place with the mouse FcγRII captured onto the sensor chip. 20 mM N-(2-Acetamido)-2-aminoethanesulfonic acid, 150 mM NaCl, 1.2 mM CaCl₂), and 0.05% (w/v) TWEEN® 20 at pH7.4 was used as the running buffer, and the respective buffer was also used to dilute the soluble mouse FcγRII. To regenerate the sensor chip, 10 mM glycine-HCl at pH1.5 was used. All measurements were carried out at 25° C. […] To calculate the parameters, the BIACORE® T100 Evaluation Software (GE Healthcare) was used.

[2] = molecular target: T2, human FcγRIIb constitutively expressed …; test: cell-based or functional assay

Binder	biacore IC binding (relative, SG1 = 1.00) [1]	celluar uptake (labelled human latent myostatin taken up as antigen-antibody complex) [2]
M103205H795-P1534m/M103202L889-SK1 (antibody, human IgG1, kappa, name in EU numbering, copies: 2 + 2) heavy: not shown light: DIVMTQSPATLSLSPGERATLSCTSSQSVYHANWLSWFQQKPGQPPKLLIYWASTLAYGVPSRFSGSGSGTDFTLTISSLQPEDAATYYCAGGYGGGRYAFGQGTKVEIKRTVAAPSVFIFPPSDEQLKSGTASVVCLLNNFYPREAKVQWKVDNALQSGNSQESVTEQDSKDSTYSLSSTLTLSKADYEKHKVYACEVTHQGLSSPVTKSFNRGEC	1.12 relative to SG1	3.12 relative to SG1 = 1.00
M103205H795-P1539m/M103202L889-SK1 (antibody, human IgG1, kappa, name in EU numbering, copies: 2 + 2) heavy: not shown light: DIVMTQSPATLSLSPGERATLSCTSSQSVYHANWLSWFQQKPGQPPKLLIYWASTLAYGVPSRFSGSGSGTDFTLTISSLQPEDAATYYCAGGYGGGRYAFGQGTKVEIKRTVAAPSVFIFPPSDEQLKSGTASVVCLLNNFYPREAKVQWKVDNALQSGNSQESVTEQDSKDSTYSLSSTLTLSKADYEKHKVYACEVTHQGLSSPVTKSFNRGEC	0.9 relative to SG1	3.2 relative to SG1 = 1.00
M103205H795-P1543m/M103202L889-SK1 (antibody, human IgG1, kappa, name in EU numbering, copies: 2 + 2) heavy: not shown light: DIVMTQSPATLSLSPGERATLSCTSSQSVYHANWLSWFQQKPGQPPKLLIYWASTLAYGVPSRFSGSGSGTDFTLTISSLQPEDAATYYCAGGYGGGRYAFGQGTKVEIKRTVAAPSVFIFPPSDEQLKSGTASVVCLLNNFYPREAKVQWKVDNALQSGNSQESVTEQDSKDSTYSLSSTLTLSKADYEKHKVYACEVTHQGLSSPVTKSFNRGEC	1.19 relative to SG1	3.7 relative to SG1 = 1.00
M103205H795-P1544m/M103202L889-SK1 (antibody, human IgG1, kappa, name in EU numbering, copies: 2 + 2) heavy: QVTLKESGPVLVKPTETLTLTCTVSGIDLSHDDISWVRQAPGKGLEWVGIISYAGSTYYASWAKGRLTISKDTSKNQVVLTMTNMDPVDTATYYCARGVPAYSHGGDLWGQGTLVTVSSASTKGPSVFPLAPSSKSTSGGTAALGCLVKDYFPEPVTVSWNSGALTSGVHTFPAVLQSSGLYSLSSVVTVPSSSLGTQTYICNVNHKPSNTKVDKKVEPKSCDKTHTCPPCPAPELLGGPSVFLFPPKPKDTLMISRTPEVTCVVVDVSHEDPEVKFNWYVDGVEVHNAKTKPREEQYNSTYRVVSVLTVLHRDWLNGKEYKCKVSNKALPAPIEKTISKAKGQPREPQVYTLPPSREEMTKNQVSLTCLVKGFYPSDIAVEWESNGQPENNYKTTPPVLDSRGSFFLYSKLTVKKSRWQQGNVFSCSVMHEALHNHYTQKSLSLSP light: DIVMTQSPATLSLSPGERATLSCTSSQSVYHANWLSWFQQKPGQPPKLLIYWASTLAYGVPSRFSGSGSGTDFTLTISSLQPEDAATYYCAGGYGGGRYAFGQGTKVEIKRTVAAPSVFIFPPSDEQLKSGTASVVCLLNNFYPREAKVQWKVDNALQSGNSQESVTEQDSKDSTYSLSSTLTLSKADYEKHKVYACEVTHQGLSSPVTKSFNRGEC	2.04 relative to SG1	7.66 relative to SG1 = 1.00
M103205H795-P1542m/M103202L889-SK1 (antibody, human IgG1, kappa, name in EU numbering, copies: 2 + 2) heavy: not shown light: DIVMTQSPATLSLSPGERATLSCTSSQSVYHANWLSWFQQKPGQPPKLLIYWASTLAYGVPSRFSGSGSGTDFTLTISSLQPEDAATYYCAGGYGGGRYAFGQGTKVEIKRTVAAPSVFIFPPSDEQLKSGTASVVCLLNNFYPREAKVQWKVDNALQSGNSQESVTEQDSKDSTYSLSSTLTLSKADYEKHKVYACEVTHQGLSSPVTKSFNRGEC	1.21 relative to SG1	3.32 relative to SG1 = 1.00
M103205H795-P1536m/M103202L889-SK1 (antibody, human IgG1, kappa, name in EU numbering, copies: 2 + 2) heavy: not shown light: DIVMTQSPATLSLSPGERATLSCTSSQSVYHANWLSWFQQKPGQPPKLLIYWASTLAYGVPSRFSGSGSGTDFTLTISSLQPEDAATYYCAGGYGGGRYAFGQGTKVEIKRTVAAPSVFIFPPSDEQLKSGTASVVCLLNNFYPREAKVQWKVDNALQSGNSQESVTEQDSKDSTYSLSSTLTLSKADYEKHKVYACEVTHQGLSSPVTKSFNRGEC	1.16 relative to SG1	2.05 relative to SG1 = 1.00
M103205H795-P1541m/M103202L889-SK1 (antibody, human IgG1, kappa, name in EU numbering, copies: 2 + 2) heavy: not shown light: DIVMTQSPATLSLSPGERATLSCTSSQSVYHANWLSWFQQKPGQPPKLLIYWASTLAYGVPSRFSGSGSGTDFTLTISSLQPEDAATYYCAGGYGGGRYAFGQGTKVEIKRTVAAPSVFIFPPSDEQLKSGTASVVCLLNNFYPREAKVQWKVDNALQSGNSQESVTEQDSKDSTYSLSSTLTLSKADYEKHKVYACEVTHQGLSSPVTKSFNRGEC	1.57 relative to SG1	7.17 relative to SG1 = 1.00
M103205H795-P1538m/M103202L889-SK1 (antibody, human IgG1, kappa, name in EU numbering, copies: 2 + 2) heavy: not shown light: DIVMTQSPATLSLSPGERATLSCTSSQSVYHANWLSWFQQKPGQPPKLLIYWASTLAYGVPSRFSGSGSGTDFTLTISSLQPEDAATYYCAGGYGGGRYAFGQGTKVEIKRTVAAPSVFIFPPSDEQLKSGTASVVCLLNNFYPREAKVQWKVDNALQSGNSQESVTEQDSKDSTYSLSSTLTLSKADYEKHKVYACEVTHQGLSSPVTKSFNRGEC	1.11 relative to SG1	1.84 relative to SG1 = 1.00
M103205H795-P1535m/M103202L889-SK1 (antibody, human IgG1, kappa, name in EU numbering, copies: 2 + 2) heavy: not shown light: DIVMTQSPATLSLSPGERATLSCTSSQSVYHANWLSWFQQKPGQPPKLLIYWASTLAYGVPSRFSGSGSGTDFTLTISSLQPEDAATYYCAGGYGGGRYAFGQGTKVEIKRTVAAPSVFIFPPSDEQLKSGTASVVCLLNNFYPREAKVQWKVDNALQSGNSQESVTEQDSKDSTYSLSSTLTLSKADYEKHKVYACEVTHQGLSSPVTKSFNRGEC	1.11 relative to SG1	2.49 relative to SG1 = 1.00
M103205H795-P1540m/M103202L889-SK1 (antibody, human IgG1, kappa, name in EU numbering, copies: 2 + 2) heavy: not shown light: DIVMTQSPATLSLSPGERATLSCTSSQSVYHANWLSWFQQKPGQPPKLLIYWASTLAYGVPSRFSGSGSGTDFTLTISSLQPEDAATYYCAGGYGGGRYAFGQGTKVEIKRTVAAPSVFIFPPSDEQLKSGTASVVCLLNNFYPREAKVQWKVDNALQSGNSQESVTEQDSKDSTYSLSSTLTLSKADYEKHKVYACEVTHQGLSSPVTKSFNRGEC	1.73 relative to SG1	7.64 relative to SG1 = 1.00
M103205H795-P1537m/M103202L889-SK1 (antibody, human IgG1, kappa, name in EU numbering, copies: 2 + 2) heavy: not shown light: DIVMTQSPATLSLSPGERATLSCTSSQSVYHANWLSWFQQKPGQPPKLLIYWASTLAYGVPSRFSGSGSGTDFTLTISSLQPEDAATYYCAGGYGGGRYAFGQGTKVEIKRTVAAPSVFIFPPSDEQLKSGTASVVCLLNNFYPREAKVQWKVDNALQSGNSQESVTEQDSKDSTYSLSSTLTLSKADYEKHKVYACEVTHQGLSSPVTKSFNRGEC	1.32 relative to SG1	2.77 relative to SG1 = 1.00
